Changes are numbered by the printed parent chain.

Assay [1] deals with THP-1 cells over TNF-α-activated HUVEC. In words: L-selectin-GFP/RFP clustering in mid-TEM under flow, FLIM/FRET. The class given is cell-based, human. The note with it: 15 min perfusion at 1.5 dyn/cm^2, fixed in mid-TEM; Top = non-transmigrated uropods, Base = transmigrated pseudopods; at least 45 cells, 3 experiments; no TAPI-0. How it is done: (A) Line scanning confocal microscopic image of THP-1 cells, stably expressing GFP, captured in mid-TEM—following 15 min of perfusion over TNF-α-activated HUVEC monolayers. […] “Top” and “Base,” respectively, represent the apical and basolateral aspect of the endothelium (x63 objective lens, Leica SP5). Scale bar = 24 μm. (B,C) THP-1 cells expressing WT, SSAA, or SSDD L-selectin-GFP/RFP were perfused over TNF-α-activated HUVEC and fixed after 15 min of perfusion. […] Lifetime images taken of at least 45 cells and analyzed over 3 independent experiments was quantified and expressed as FRET efficiency. Images representative of three independent experiments, where at least 45 cells of each group was analyzed at two optical sections, Top and Base, as indicated in the cartoon of a yellow monocyte captured in mid-TEM crossing a red endothelium. Individual GFP channel and lifetime images are provided for each cell line. The lifetime of fluorescence is expressed in a pseudocolour scale from red (low lifetime with a very high probability of interaction) to blue (high lifetime with a very low probability of interaction). Statistics: unpaired student t-test ***p ≤ 0.001.
Cells expressing WT L-selectin-GFP/RFP were treated for 30 min with 10 μM TAPI-0 and subsequently perfused over TNF-activated HUVEC monolayers for 15 min prior to fixation and analysis for FRET by FLIM (see Materials and Methods for more detail). […] (B) Images representative of three independent experiments, where at least 45 cells of each group were analyzed at two optical sections–non-transmigrated uropods (Top) and transmigrated pseudopods (Base). GFP fluorescence channel and lifetime images are provided for each cell line. The lifetime of fluorescence is expressed in a pseudocolour scale from red (low lifetime with a very high probability of interaction) to blue (high lifetime with a very low probability of interaction). […]
FLIM measurement of FRET was performed with a multiphoton microscope system as described previously ([8], [23]). […] Fluorescence lifetime imaging capability was provided by time-correlated, single-photon counting electronics (SPC 700; Becker & Hickl). […] Data were analyzed as previously described ([65]). The FRET efficiency is related to the molecular separation of donor and acceptor and the fluorescence lifetime of the interacting fraction by: […]
where ηFRET is the FRET efficiency, R0 is the Förster radius, r is the molecular separation, τFRET is the lifetime of the interacting fraction and τd is the lifetime of the donor in the absence of an acceptor. The donor- only control is used as the reference against which all of other lifetimes are calculated in each experiment. τFRET and τd can also be taken to be the lifetime of the interacting fraction and non-interacting fraction, respectively. […]

For assay [2] the test system is unchanged. The experiment in a line: Pseudopod protrusion scoring in TEM under flow. The class given is cell-based, human. The note with it: for cells with 2 protrusions / cells with 0 protrusions: 15 min time point, mean of 3 fields of view per flow experiment, three occasions, at least 180 cells per group, % printed; for cells with 2 protrusions: significance ** S367A p ≤ 0.01 (Tukey); for cells with 0 protrusions: significance *** S367A p ≤ 0.001, ** SSAA p ≤ 0.01 (Tukey). The method, then:
(A) The number of protrusions formed over this period was scored as: zero, one, two, or >2. (B) The percentages of cells bearing these protrusions were scored at specific time points: 6 min (blue bars), 15 min (green bars), or 25 min (red bars). Supplementary Videos 2, 3, 4 provide examples of cells producing a range of protrusions as TEM proceeds. Data represent SEM of 3 fields of view per flow experiment, conducted on three separate occasions, and at least 180 cells analyzed per group. Values of the vertical lines indicate the differences in protrusion number (specifically “zero” and “two”) corresponding to each of the cell lines, for which statistical significance is shown in Table 1.
All flow experiments were performed using a 35 mm diameter Glycotech parallel plate flow chamber. Perfusion experiments were performed at 1.5 dyn/cm^2 using a Harvard Apparatus 2000 PHD syringe pump. Perfusion media consisted of: RPMI supplemented with L-glutamine, 10% FCS, 1% penicillin/streptomycin, 50 μM β-mercaptoethanol, and 25 mM HEPES. Human Umbilical Vein Endothelial Cells (HUVEC–Lonza) were seeded onto 35 mm diameter glass coverslips (no. 1 thickness; VWR) that were pre-coated with 10 μg/mL fibronectin (37°C for at least 1 h). Before each perfusion assay, HUVEC were stimulated overnight (16 h) with 10 ng/mL carrier-free recombinant human TNF-α (R&D Systems). Each perfusion assay was performed by injecting a bolus of cells for 6 min, followed by just perfusion media (without cells) for the […]. THP-1 cells were perfused at a density of 0.5 ×10^6 cells per mL. THP-1 cells treated with 10 μM TAPI-0 required a preincubation time of 10 min at 37°C before perfusion over TNF-α-activated HUVEC. Note that 10 μM TAPI-0 was also supplemented in the perfusate. Stills were acquired once every 10 seconds using 10 × objective lens.

B1: WT: wild-type human L-selectin, C-terminally tagged with GFP or RFP, expressed in THP-1 cells (protein)
chain: WTYHYSEKPMNWQRARRFCRDNYTDLVAIQNKAEIEYLEKTLPFSRSYYWIGIRKIGGIWTWVGTNKSLTEEAENWGDGEPNNKKNKEDCVEIYIKRNKDAGKWNDDACHKLKAALCYTASCQPWSCSGHGECVEIINNYTCNCDVGYYGPQCQFVIQCEPLEAPELGTMDCTHPLGNFSFSSQCAFSCSEGTNLTGIEETTCGPFGNWSSPEPTCQVIQCEPLSAPDLGIMNCSHPLASFSFTSACTFICSEGTELIGKKKTICESSGIWSNPSPICQKLDKSFSMIKEGDYNPLFIPVAVMVTAFSGLAFIIWLARRLKKGKKSKRSMNDPY
modifications: left off: eGFP (donor copy) or mCherry (acceptor copy, called RFP), C-terminal, kept
Regarding B1, in assay [1], the “subcellular distribution of L-selectin clustering during TEM (FLIM/FRET)” value is given as “clustered exclusively within transmigrated pseudopods”. Also, in assay [2], the “cells with 2 protrusions” value was found to be 36.2% and the “cells with 0 protrusions” value is 7.9%.

B2: SSAA: L-selectin with Ser^364 and Ser^367 both mutated to alanines (protein)
chain: B1 chain with S326A, S329A
modifications: left off: eGFP (donor copy) or mCherry (acceptor copy, called RFP), C-terminal, kept
B2: the “subcellular distribution of L-selectin clustering during TEM (FLIM/FRET)” value in assay [1] is given as “phenocopied the subcellular distribution of WT L-selectin”. The “protrusive activity profile in TEM (in words)” value in assay [2] (6, 15 and 25 min of flow over TNF-α-activated HUVEC) is given as “phenocopied more the S367A than the S364A cell line”. Also, in assay [2], the “cells with 2 protrusions” value is given as 24.9% and the “cells with 0 protrusions” value is 22.4^** %.

For the origin of these results see paper PMC6774396 (Frontiers in Immunology, 2019).
